Columns and labels:
human LIF protein = molecular target: T1, human LIF protein (human, UniProt P15018 23-202); experiment: ELISA, human LIF coated at 1 µg/mL, A450
T1 construct: Bought recombinant protein (Sino Biological / Yiqiao Shenzhou 14890-HNAH) in most assays; also called recombinant human LIF protein; rhLIF
Procedure: The recombinant human LIF protein was diluted to 1 μg/mL, was coated on the enzyme label plate, 100 μL of the protein was added into every well, and incubated overnight in 4° C. The enzyme label plates were taken out next day, and the liquid was discarded, and were washed with PBST three times and blocked with 2% BSA in PBS for 1 h at room temperature, then washed with PBST three times, and added anti-human LIF antibodies 38E10E1C11, 5D8 and P36-033 at different concentrations and incubated for 1 h at room temperature. The liquid was discarded, and the plates were washed with PBST four times. The plates were added with HRP-labeled goat anti-mouse Fab antibody or goat anti-human FC antibody and incubated for 1 h at room temperature. Then the liquid was discarded, and the plates were washed four times with PBST and incubated with TMB colored solution in 10 minutes at room temperature. Stop color development by adding 2 mol/L H₂SO₄, and the absorption value at 450 nm is quantitated using an automated plate photometer, and the results were shown in FIG. 1.

[1] = molecular target: recombinant machin LIF protein (machin, UniProt A0A2K5UCA8 23-202); experiment: ELISA, machin LIF coated at 0.5 µg/mL, A450
Procedure: The recombinant machin LIF protein (purchased from Sino biological) was diluted to 0.5 μg/mL, and was coated on the enzyme label plate, 100 μL of protein was added into every well, and incubated overnight in 4° C. The enzyme label plates were taken out next day, and the liquid was discarded, and were washed with PBST three times and blocked with 2% BSA in PBS for 1 h at room temperature, then washed with PBST three times, and added anti-human LIF antibodies 38E10E1C11, 5D8 and P36-033 at different concentrations and incubated for 1 h at room temperature. The liquid was discarded, and the plates were washed with PBST four times. The plates were added with HRP-labeled goat anti-mouse Fab antibody or goat anti-human FC antibody and incubated for 1 h at room temperature. Then the liquid was discarded, and the plates were washed with PBST four times and incubated with TMB colored solution in 10 minutes at room temperature. Stop color development by adding 2 mol/L H₂SO₄, and the absorption value at 450 nm is quantitated using an automated plate photometer, and the results were shown in FIG. 3.

human OSM = molecular target: T2, human OSM (human, UniProt P13725 26-221, limits assumed); experiment: ELISA, human OSM coated at 1 µg/mL, HRP goat anti-mouse Fab, A450
T2 sequence (looked up): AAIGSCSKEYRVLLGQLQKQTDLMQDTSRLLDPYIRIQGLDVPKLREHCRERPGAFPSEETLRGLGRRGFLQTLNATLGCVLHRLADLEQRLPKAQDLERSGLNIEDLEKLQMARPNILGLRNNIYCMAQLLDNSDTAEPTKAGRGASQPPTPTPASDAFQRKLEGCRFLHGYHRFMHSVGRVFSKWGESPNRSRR
Procedure: (§1) After washed four times with PBST, HRP-labeled goat anti-mouse Fab secondary antibodies were added and incubated at room temperature for 1 h. After washed four times with PBST, TMB colored solution was added and color developing for 10 min at room temperature. The absorption value at 450 nm was read by the enzyme maker. The data were analyzed and plotted using Origin pro 9 software.

human IL-6 = human IL-6 (human, UniProt P05231 30-212, limits assumed); experiment: ELISA, human IL-6 coated at 1 µg/mL, HRP goat anti-mouse Fab, A450
Procedure: as §1

human CNTF = molecular target: T3, human CNTF (human, UniProt P26441 1-200, limits assumed); experiment: ELISA, human CNTF coated at 1 µg/mL, HRP goat anti-mouse Fab, A450
T3 sequence (looked up): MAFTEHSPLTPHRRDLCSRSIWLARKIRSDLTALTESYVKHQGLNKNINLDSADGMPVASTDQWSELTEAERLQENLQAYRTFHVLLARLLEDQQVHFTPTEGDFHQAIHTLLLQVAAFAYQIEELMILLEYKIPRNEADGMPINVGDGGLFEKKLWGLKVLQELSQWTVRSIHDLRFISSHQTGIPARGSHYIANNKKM
Procedure: as §1

Sequence of recombinant machin LIF protein (A0A2K5UCA8 entry or part of it limits assumed): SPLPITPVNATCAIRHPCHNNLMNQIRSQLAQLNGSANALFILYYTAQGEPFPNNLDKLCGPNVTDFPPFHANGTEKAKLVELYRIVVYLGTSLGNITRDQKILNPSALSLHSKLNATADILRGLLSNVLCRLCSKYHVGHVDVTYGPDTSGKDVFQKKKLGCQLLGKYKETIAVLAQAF
T1 sequence (P15018 23-202 limits assumed): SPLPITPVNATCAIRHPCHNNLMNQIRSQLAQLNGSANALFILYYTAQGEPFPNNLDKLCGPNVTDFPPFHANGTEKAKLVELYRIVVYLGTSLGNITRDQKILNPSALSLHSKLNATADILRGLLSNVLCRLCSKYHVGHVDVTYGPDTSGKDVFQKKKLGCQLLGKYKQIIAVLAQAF
Sequence of human IL-6 (P05231 30-212 limits assumed): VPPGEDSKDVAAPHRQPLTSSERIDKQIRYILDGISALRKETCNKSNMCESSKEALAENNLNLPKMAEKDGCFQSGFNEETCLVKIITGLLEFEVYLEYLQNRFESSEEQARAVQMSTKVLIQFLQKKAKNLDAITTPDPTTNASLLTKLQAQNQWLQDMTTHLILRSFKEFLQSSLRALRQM

EC50 (read off the curve) (human LIF protein): ~0.05 µg/mL
EC50 (read off the curve) [1]: ~0.07 µg/mL
binding result (human OSM): no binding (tested: 25 ug/ml)
binding result (human IL-6): no binding (tested: 25 ug/ml)
binding result (human CNTF): no binding (tested: 25 ug/ml)
B1: 38E10E1C11 antibody (antibody, mouse IgG1, kappa)
heavy: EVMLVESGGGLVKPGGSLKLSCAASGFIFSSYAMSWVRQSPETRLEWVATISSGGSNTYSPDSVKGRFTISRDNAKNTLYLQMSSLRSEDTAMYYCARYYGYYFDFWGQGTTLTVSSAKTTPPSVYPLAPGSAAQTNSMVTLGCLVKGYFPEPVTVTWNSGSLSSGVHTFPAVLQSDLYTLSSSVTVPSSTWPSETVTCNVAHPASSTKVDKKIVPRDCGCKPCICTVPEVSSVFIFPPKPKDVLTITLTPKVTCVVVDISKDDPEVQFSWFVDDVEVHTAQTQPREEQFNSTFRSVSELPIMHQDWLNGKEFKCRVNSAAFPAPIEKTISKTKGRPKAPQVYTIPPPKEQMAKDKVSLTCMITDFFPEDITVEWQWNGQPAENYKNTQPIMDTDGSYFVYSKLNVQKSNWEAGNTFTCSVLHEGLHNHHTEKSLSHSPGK
light: DIHMTQSPASLSASVGETVTITCRASENIYSYLAWYQQKQGKSPQLLVYNAKTLAEGVPSRFSGSGSGTQFSLKINSLQPEDFGSYYCQHHYVTPLTFGAGTKLELKRADAAPTVSIFPPSSEQLTSGGASVVCFLNNFYPKDINVKWKIDGSERQNGVLNSWTDQDSKDSTYSMSSTLTLTKDEYERHNSYTCEATHKTSTSPIVKSFNRNEC
notes: Mouse IgG1, kappa light chain; also called 38E10E1C11 mAb; mAb38E10E1C11

Source: patent US20210403582A1 (JACOBIO PHARMACEUTICALS, published 2021)
